The values below come from article PMC2749878 (Developmental cell, 2009).

The target in data set [1] is T1, MBP-VPS20 α1 - α4 (residues 1-145) (human, UniProt Q96FZ7 1-145).
T1 sequence (looked up): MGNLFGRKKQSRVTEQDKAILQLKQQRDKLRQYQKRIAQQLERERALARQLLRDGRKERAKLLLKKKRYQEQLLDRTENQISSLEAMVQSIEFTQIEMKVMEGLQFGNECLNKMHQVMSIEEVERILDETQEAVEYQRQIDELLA
Briefly: SPR. Background: Surface plasmon resonance follows binding to a sensor surface in real time, without labels.

The data set “crystal structure” deals with the molecule itself. Briefly: crystal structure.

B1: VPS25c, C-terminal winged helix (WH2) domain of human VPS25 (residues 102-176) (domain or fragment, UniProt Q9BRG1 102-176, looked up)
chain: RRPEEWGKLIYQWVSRSGQNNSVFTLYELTNGEDTEDEEFHGLDEATLLRALQALQQEHKAEIITVSDGRGVKFF
As usually defined, the Kd is the free concentration of one partner at which half of the binding sites on the other are occupied at equilibrium, for simple one-to-one binding. High values mean lower affinity, low ones higher affinity. For the molecule B1, in data set [1], the Kd came to 2.5 µM.

B2: VPS20 α1 (residues 11-48) (domain or fragment, human, UniProt Q96FZ7 11-48, looked up)
chain: SRVTEQDKAILQLKQQRDKLRQYQKRIAQQLERERALA
With B2, the binding result in “crystal structure” is “binds”.
